From US20050226813A1, “Labelled somatostatin analogs backbone cyclized through metal complexation” (priority 2002, published 2005)
*1 amine or outer side, *2 acyl side, *3 side chain or, on linkers, in order; H or OH if unused. Where no end group is shown, it is not given here. [ ]: non-standard residue; d: D form. ReO = oxorhenium(V), one metal core binding both hemi-chelators, from trichlorooxobis(triphenylphosphine)rhenium(V); GlyN3 = N-(3-aminopropyl)glycine amide, Cys acylated on the omega-amine, NC(=O)CN(CCCN[*:3])[*:1]; N(6-aminohexyl)Gly = O=C(CN(CCCCCCN[*:3])[*:1])[*:2]; N(2-Aminoethyl)Gly = O=C(CN(CCN[*:3])[*:1])[*:2]

B1: ReO-GF-6 (peptide)
peptide: CXFWWKTFG
modifications: L-Cys at 1; beta-Ala at 2 (written X); D-Trp at 5; GlyN6 building unit at 9 with D-Cys on its omega-amine; C-terminal amide; ReO (oxorhenium(V)) chelated by the two Cys closes the ring
notes: also called ReO-GF-06; ReO-LCys*-βAla-Phe-Trp-DTrp-Lys-Thr-Phe-GlyN6(DCys*)-NH2
B2: ReO-GF-46 (peptide)
peptide: CFW[dW]KTF[N(2-Aminoethyl)Gly](dC)-NH2
modifications: bridge (positions not given here) via ReO; not fully specified (bridges); also: N2S2 oxorhenium(V) chelate via the two Cys
B3: ReO-GF-24 (peptide)
peptide: CXFWWKTFG
modifications: not fully specified; D-Cys at 1; beta-Ala at 2 (written X); D-Trp at 5; GlyN3 building unit at 9 with D-Cys on its omega-amine; C-terminal amide; ReO (oxorhenium(V)) chelated by the two Cys closes the ring
B4: ReO-GF-12 (peptide)
peptide: CGFWWKTFG
modifications: not fully specified; D-Cys at 1; D-Trp at 5; GlyN6 building unit at 9 with D-Cys on its omega-amine; C-terminal amide; ReO (oxorhenium(V)) chelated by the two Cys closes the ring
B5: ReO-GF-15 (peptide)
peptide: CFWWKTFG
modifications: not fully specified; D-Cys at 1; D-Trp at 4; GlyN6 building unit at 8 with L-Cys on its omega-amine; C-terminal amide; ReO (oxorhenium(V)) chelated by the two Cys closes the ring
B6: ReO-GF-44 (peptide)
peptide: CGFWWKTFG
modifications: not fully specified; D-Cys at 1; D-Trp at 5; GlyN2 building unit at 9 with D-Cys on its omega-amine; C-terminal amide; ReO (oxorhenium(V)) chelated by the two Cys closes the ring
B7: ReO-GF-22 (peptide)
peptide: CXFWWKTFG
modifications: L-Cys at 1; beta-Ala at 2 (written X); D-Trp at 5; GlyN3 building unit at 9 with D-Cys on its omega-amine; C-terminal amide; ReO (oxorhenium(V)) chelated by the two Cys closes the ring
B8: ReO-GF-32 (peptide)
peptide: CFWWKTFG
modifications: not fully specified; D-Cys at 1; D-Trp at 4; GlyN3 building unit at 8 with D-Cys on its omega-amine; C-terminal amide; ReO (oxorhenium(V)) chelated by the two Cys closes the ring
B9: ReO-GF-45 (peptide)
peptide: CFW[dW]KTF[N(2-Aminoethyl)Gly](Cys)-NH2
modifications: bridge (positions not given here) via ReO; not fully specified (bridges); also: N2S2 oxorhenium(V) chelate via the two Cys
B10: ReO-GF-5 (peptide)
peptide: CXFWWKTFG
modifications: L-Cys at 1; beta-Ala at 2 (written X); D-Trp at 5; GlyN6 building unit at 9 with L-Cys on its omega-amine; C-terminal amide; ReO (oxorhenium(V)) chelated by the two Cys closes the ring
B11: ReO-GF-16 (peptide)
peptide: CFWWKTFG
modifications: not fully specified; D-Cys at 1; D-Trp at 4; GlyN6 building unit at 8 with D-Cys on its omega-amine; C-terminal amide; ReO (oxorhenium(V)) chelated by the two Cys closes the ring
B12: ReO-GF-25 (peptide)
peptide: CGFW[dW]KTF[GlyN3](Cys)-NH2
modifications: bridge (positions not given here) via ReO; not fully specified (bridges); also: N2S2 oxorhenium(V) chelate via the two Cys
B13: ReO-GF-18 (peptide)
peptide: CXFWWKTFG
modifications: L-Cys at 1; GABA at 2 (written X); D-Trp at 5; GlyN3 building unit at 9 with D-Cys on its omega-amine; C-terminal amide; ReO (oxorhenium(V)) chelated by the two Cys closes the ring
B14: ReO-GF-4 (peptide)
peptide: CXFWWKTFG
modifications: not fully specified; D-Cys at 1; GABA at 2 (written X); D-Trp at 5; GlyN6 building unit at 9 with D-Cys on its omega-amine; C-terminal amide; ReO (oxorhenium(V)) chelated by the two Cys closes the ring
B15: ReO-GF-26 (peptide)
peptide: CGFW[dW]KTF[GlyN3](dC)-NH2
modifications: bridge (positions not given here) via ReO; not fully specified (bridges); also: N2S2 oxorhenium(V) chelate via the two Cys
B16: ReO-GF-17 (peptide)
peptide: CXFWWKTFG
modifications: L-Cys at 1; GABA at 2 (written X); D-Trp at 5; GlyN3 building unit at 9 with L-Cys on its omega-amine; C-terminal amide; ReO (oxorhenium(V)) chelated by the two Cys closes the ring
B17: ReO-GF-47 (peptide)
peptide: CFWWKTFG
modifications: not fully specified; D-Cys at 1; D-Trp at 4; GlyN2 building unit at 8 with L-Cys on its omega-amine; C-terminal amide; ReO (oxorhenium(V)) chelated by the two Cys closes the ring
B18: ReO-GF-33 (peptide)
peptide: CXFWWKTFG
modifications: L-Cys at 1; GABA at 2 (written X); D-Trp at 5; GlyN2 building unit at 9 with L-Cys on its omega-amine; C-terminal amide; ReO (oxorhenium(V)) chelated by the two Cys closes the ring
B19: ReO-GF-23 (peptide)
peptide: CXFWWKTFG
modifications: D-Cys at 1; beta-Ala at 2 (written X); D-Trp at 5; GlyN3 building unit at 9 with L-Cys on its omega-amine; C-terminal amide; ReO (oxorhenium(V)) chelated by the two Cys closes the ring
B20: ReO-GF-9 (peptide)
peptide: CGFW[dW]KTF[N(6-aminohexyl)Gly](Cys)-NH2
modifications: bridge (positions not given here); not fully specified (bridges); also: N2S2 oxorhenium(V) chelate via the two Cys
B21: ReO-GF-37 (peptide)
peptide: CXFWWKTFG
modifications: L-Cys at 1; beta-Ala at 2 (written X); D-Trp at 5; GlyN2 building unit at 9 with L-Cys on its omega-amine; C-terminal amide; ReO (oxorhenium(V)) chelated by the two Cys closes the ring
notes: also called ReO-LCys*-βAla-Phe-Trp-DTrp-Lys-Thr-Phe-GlyN2(LCys*)-NH2
B22: ReO-GF-35 (peptide)
peptide: CXFWWKTFG
modifications: D-Cys at 1; GABA at 2 (written X); D-Trp at 5; GlyN2 building unit at 9 with L-Cys on its omega-amine; C-terminal amide; ReO (oxorhenium(V)) chelated by the two Cys closes the ring
B23: ReO-GF-3 (peptide)
peptide: CXFWWKTFG
modifications: D-Cys at 1; GABA at 2 (written X); D-Trp at 5; GlyN6 building unit at 9 with L-Cys on its omega-amine; C-terminal amide; ReO (oxorhenium(V)) chelated by the two Cys closes the ring
notes: also called ReO-GF-03; ReO-DCys*-GABA-Phe-Trp-DTrp-Lys-Thr-Phe-GlyN6(LCys*)-NH2
B24: ReO-GF-48 (peptide)
peptide: CFWWKTFG
modifications: not fully specified; D-Cys at 1; D-Trp at 4; GlyN2 building unit at 8 with D-Cys on its omega-amine; C-terminal amide; ReO (oxorhenium(V)) chelated by the two Cys closes the ring
B25: ReO-GF-10 (peptide)
peptide: CGFWWKTFG
modifications: not fully specified; L-Cys at 1; D-Trp at 5; GlyN6 building unit at 9 with D-Cys on its omega-amine; C-terminal amide; ReO (oxorhenium(V)) chelated by the two Cys closes the ring
notes: also called ReO-LCys*-Gly-Phe-Trp-DTrp-Lys-Thr-Phe-GlyN6(DCys*)-NH2

What follows are binders tested against T1, human cloned SST-R2 (human, UniProt P30874 1-369) (assay: inhibition of 125I-Tyr11-SRIF-14 binding to membranes of CHO cells expressing cloned human SST-R2).
T1 construct: whole, on cells; Assayed as membrane preparations of CHO cells expressing the cloned receptor, not as intact cells; also called hSST-R2; human SST-R2
T1 sequence (P30874 whole entry): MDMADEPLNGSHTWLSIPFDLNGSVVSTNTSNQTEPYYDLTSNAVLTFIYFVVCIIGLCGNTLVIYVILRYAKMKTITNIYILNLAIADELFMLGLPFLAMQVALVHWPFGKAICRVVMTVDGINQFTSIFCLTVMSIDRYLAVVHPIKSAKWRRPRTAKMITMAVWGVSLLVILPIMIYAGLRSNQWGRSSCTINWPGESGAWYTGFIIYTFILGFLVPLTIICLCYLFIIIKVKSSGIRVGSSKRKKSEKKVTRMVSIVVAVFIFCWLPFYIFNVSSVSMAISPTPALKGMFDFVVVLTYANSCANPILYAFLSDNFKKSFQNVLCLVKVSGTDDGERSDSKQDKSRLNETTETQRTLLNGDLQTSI
Description: The SST analogs were tested for their potency in inhibition of the binding of ¹²⁵I-Tyr¹¹-SRIF (based on the method described by Raynor et. al., Molecular Pharmnacology 43: 838, 1993) to membrane preparations expressing the transmembranal SST receptors (SST-R1, 2, 3, 4 or 5). The receptor preparations used for these tests were either from the cloned human receptors selectively and stably expressed in Chinese Hamster Ovary (CHO) cells or from cell lines naturally expressing the SST-R5. Typically, cell membranes were homogenized in Tris buffer in the presence of protease inhibitors and incubated for 30-40 minutes with ¹²⁵I-Tyr¹¹-SRIF with different concentrations of the tested sample. The binding reactions were filtered, the filters were washed and the bound radioactivity was counted in β counter after addition of scintillation colution. Non specific binding was defined as the radioactivity remaining bound in the presence of 1 μM unlabeled SRIF-14.

Row | IC50 [nM] | Binder
1 | 5.3 | B1
2 | > 10 | B2
3 | 23 | B3
4 | 9 | B4
5 | > 10 | B5
6 | > 10 | B6
7 | 11 | B7
8 | 14 | B8
9 | > 10 | B9
10 | 35 | B10
11 | 18 | B11
12 | > 10 | B12
13 | ~10 | B13
14 | 12 | B14
15 | ~10 | B15
16 | 24 | B16
17 | > 10 | B17
18 | > 10 | B18
19 | ~10 | B19
20 | ~10 | B20
21 | 3 | B21
22 | > 10 | B22
23 | 6 | B23
24 | > 10 | B24
25 | 3 | B25
